In US20240294661A1 (Genmab, published 2024):
Substitutions are numbered along the chain they refer to.

B1: Anti-TF HuMab 111 (antibody, IgG1, V domains shown)
VH: QVQLVESGGGVVQPGRSLRLSCAGSGFTFNRYAMYWVRQAPGKGLDWVAVISNDGINKYYADSVKGRFTISRDNSKNTLYLQMNSLRAEDTAVYYCARDHTMVRGAFDYWGQGTLVTVSS
VL: EIVLTQSPATLSLSPGERATLSCRASQSVSSYLAWYQQKPGQAPRLLIYDASNRATGIPARFSGSGSGTDFTLTISSLEPEDFAVYYCQQRSNWPLTFGGGTKVEIK
notes: full length, fully human monoclonal IgG1,kappa
B2: HuMab-TF-111-vcMMAE (antibody, IgG1, V domains shown)
VH: B1 VH
VL: B1 VL
modifications: vcMMAE drug-linker alkylated to cysteines of the reduced antibody (positions not given)
notes: DAR 4.3 by RP-HPLC, 4.1 by HIC
B3: HuMab-TF-111-mcMMAF (antibody, IgG1, V domains shown)
VH: B1 VH
VL: B1 VL
modifications: mcMMAF drug-linker alkylated to cysteines of the reduced antibody (positions not given)
notes: DAR 4.1 by RP-HPLC, 4.2 by HIC
B4: HuMab-TF-044 (antibody, V domains shown)
VH: QVQLVESGGGVVQPGRSLRLSCAASGFTFSDYAMHWVRQAPGKGLEWVAVIPYDGDNKYYADSVKGRFTISRDNSKNTLYLQMNSLRAEDTAVYYCAREDWGLEVDYWGQGALVTVSS
VL: AIQLTQSPSSLSASVGDRVTITCRASQGINSALAWYQQKPGKAPKLLIYDASSLESGVPSRFSGSGSGTDFTLTISSLQPEDFATYYCQQFNSYPLTFGGGTKVEIK
B5: Anti-TF HuMab 098 (antibody, IgG1, V domains shown)
VH: QVQLVQSGAEVRKPGSSVKVSCKASGGSFNNYPIFWVRQAPGQGFEWMGRIIPILGITAYAQKFQGRVTITADKSTSTAYMELNSLRSEDTAVYYCAGGDDLDAFDIWGQGTMVSVSS
VL: DIQMTQSPSSLSASVGDRVTITCRASQGISSWLAWYQQKPEKAPKSLIYAASSLQSGVPSRFSGSGSGTDFTLTISSLQPEDFATYYCQQYNSYPYTFGQGTKLEIK
notes: full length, fully human monoclonal IgG1,kappa; also called HuMab-TF-098
B6: HuMab-TF-011-mcMMAF (antibody, IgG1, V domains shown)
VH: EVQLLESGGGLVQPGGSLRLSCAASGFTFSNYAMSWVRQAPGKGLEWVSSISGSGDYTYYTDSVKGRFTISRDNSKNTLYLQMNSLRAEDTAVYYCARSPWGYYLDSWGQGTLVTVSS
VL: B5 VL with S9P, V15A, W32R
modifications: mcMMAF drug-linker alkylated to cysteines of the reduced antibody (positions not given)
notes: DAR 3.9 by RP-HPLC, 4.1 by HIC
B7: HuMab-TF-098-mcMMAF (antibody, IgG1, V domains shown)
VH: B5 VH
VL: B5 VL
modifications: mcMMAF drug-linker alkylated to cysteines of the reduced antibody (positions not given)
notes: DAR 4.0 by RP-HPLC, 3.9 by HIC
B8: HuMab-TF-098-vcMMAE (antibody, IgG1, V domains shown)
VH: B5 VH
VL: B5 VL
modifications: vcMMAE drug-linker alkylated to cysteines of the reduced antibody (positions not given)
notes: DAR 3.9 by RP-HPLC, 3.7 by HIC
B9: HuMab-TF-013 (antibody, V domains shown)
VH: EVQLVQSGAEVKKPGESLKISCKGSGYSFTSYWIGWVRQMPGKGLEWMGIIYPGDSDTRYSPSFQGQVTISADKSISTAYLQWSSLKASDTAMYYCARIHRGAGYSSSWPGAFDIWGQGTMVTVSS
VL: B5 VL with S31R, N92D, Y94D, Y96I, K103R
B10: Anti-TF HuMab 011 (antibody, IgG1, V domains shown)
VH: B6 VH
VL: B5 VL with S9P, V15A, W32R
notes: full length, fully human monoclonal IgG1,kappa; also called HuMab-TF-011
B11: HuMab-TF-011-vcMMAE (antibody, IgG1, V domains shown)
VH: B6 VH
VL: B5 VL with S9P, V15A, W32R
modifications: vcMMAE drug-linker alkylated to cysteines of the reduced antibody (positions not given)
notes: DAR 3.9 by RP-HPLC, 3.9 by HIC

Columns and labels:
[1] = target: T1, membrane-bound tissue factor (TF) on cells (human, UniProt P13726 33-295); test: cell-based or functional assay
[2] = target: T2, TFECDHis (extracellular domain of tissue factor, amino acid 1-251, with C-terminal His tag) (human, UniProt P13726 33-251); test: ELISA, coated TFECDHis
T2 construct: range 1-251; The stated range 1-251 starts at residue 1 of the precursor; also called recombinant extracellular domain of TF
Experimental: (§1) Binding of the anti-TF ADCs to TF was measured by ELISA (coated recombinant extracellular domain of TF) and compared with binding of unconjugated anti-TF HuMabs. […] ELISA plates were washed three times with PBS containing 0.05% Tween-20 (PBST), blocked with 200 µL/well PBST at RT for 1 h while shaking (300 rpm), washed three times with PBST and emptied. Subsequently, 100 μl anti-TF ADCs or unconjugated anti-TF HuMabs were added in serial dilutions in PBST and incubated while shaking at RT for 90 min. ELISA plates were washed three times with PBST and emptied. […] Plates were washed three times with PBST, emptied and incubated with 100 μL ABTS solution (50 ml ABTS buffer [Roche] and one ABTS tablet [50 mg; Roche]). After incubation in the dark at RT for 30 min, the reaction was stopped by incubation with 100 μL per well oxalic acid (2% [w/v]; Riedel de Haen) in the dark, for 10 min. Plates were measured at OD 405 nm in an ELISA reader (Biotek Instruments, EL808 Absorbance Microplate Reader).
(§2) Binding curves were analyzed by non-linear regression (sigmoidal dose-response with variable slope) using GraphPad Prism 5 software (GraphPad Software, San Diego, CA, USA).

[3] = target: T1, membrane-bound tissue factor (TF) on …; test: cell-based or functional assay; remark: listed apart in the source
[4] = target: T1, membrane-bound tissue factor (TF) on …; test: FACS, inhibition of binding of 100 nM FVIIa to TF on MDA-MB-231 cells; one representative experiment
Experimental: MDA-MB-231 cells were washed in PBS to remove serum and plated in 96-well plates (100,000 cells per well). […] Cells were washed with FACS buffer and mean fluorescence intensity (MFI) was measured on a FACSCanto II (Becton Dickinson).

[5] = target: T2, TFECDHis (extracellular domain of …); test: ELISA, coated TFECDHis; lower end of the group's range, tied to 011 unconjugated by Table 7 (373)
[6] = target: T2, TFECDHis (extracellular domain of …); test: ELISA, coated TFECDHis; upper end of the group's range, tied to 011-vcMMAE by Table 7 (469)
Experimental: as §1, §2

| Binder | % kill, A431 cells, anti-kappa-ETA' assay [1] | % kill, BxPC3 cells, anti-kappa-ETA' assay [1] | % kill, MDA-MB-231 cells, anti-kappa-ETA' assay [1] | EC50 of cell killing, A431 cells, anti-kappa-ETA' assay [1] | EC50 of cell killing, BxPC3 cells, anti-kappa-ETA' assay [1] | EC50 of cell killing, MDA-MB-231 cells, anti-kappa-ETA' assay [1] | EC50 [2] | % kill at 10 µg/mL, A431 cells, ADC killing assay [3] | % kill at 10 µg/mL, HPAF-II cells, ADC killing assay [3] | % kill at 10 µg/mL, NCI-H441 cells, ADC killing assay [3] | IC50 of cell killing, A431 cells, ADC killing assay [3] | IC50 of cell killing, HPAF-II cells, ADC killing assay [3] | IC50 of cell killing, NCI-H441 cells, ADC killing assay [3] | IC50 [4] | EC50 [5] | EC50 [6] |
| --- | --- | --- | --- | --- | --- | --- | --- | --- | --- | --- | --- | --- | --- | --- | --- | --- |
| B1 | 92% | 98% | 88% | 34 ng/mL | 15 ng/mL | 23 ng/mL | 377 ng/mL |  |  |  |  |  |  |  |  |  |
| B2 |  |  |  |  |  |  | 464 ng/mL | 90% | 73% | 51% | 46 ng/mL | 4 ng/mL | 416 ng/mL |  |  |  |
| B3 |  |  |  |  |  |  | 416 ng/mL | 73% | 74% | 62% | 83 ng/mL | 15 ng/mL | 416 ng/mL |  |  |  |
| B4 | 66% | 96% | 44% | 98 ng/mL | 15 ng/mL |  |  |  |  |  |  |  |  |  |  |  |
| B5 | 95% | 99% | 96% | 0.09 ng/mL | 0.013 ng/mL | 0.72 ng/mL | 422 ng/mL |  |  |  |  |  |  | 1220 ng/mL |  |  |
| B6 |  |  |  |  |  |  | 431 ng/mL | 78% | 72% | 53% | 22 ng/mL | 5 ng/mL | 5 ng/mL |  |  |  |
| B7 |  |  |  |  |  |  | 401 ng/mL | 85% | 73% | 63% | 13 ng/mL | 5 ng/mL | 4 ng/mL |  |  |  |
| B8 |  |  |  |  |  |  | 426 ng/mL | 92% | 71% | 60% | 9 ng/mL | 1 ng/mL | 10 ng/mL |  |  |  |
| B9 | 80% | 96% | 56% | 20 ng/mL | 9.4 ng/mL |  |  |  |  |  |  |  |  |  |  |  |
| B10 | 96% | 98% | 88% | 0.39 ng/mL | 0.26 ng/mL | 3 ng/mL | 373 ng/mL |  |  |  |  |  |  | 647 ng/mL | 370 ng/mL |  |
| B11 |  |  |  |  |  |  | 469 ng/mL | 93% | 71% | 60% | 10 ng/mL | 3 ng/mL | 10 ng/mL |  |  | 470 ng/mL |
